For four molecules, binding result and Kd results are on record in patent publication EP4695300A2 (dated 2026).

For test [1], the target named is T1, Prostaglandin F2 Receptor Inhibitor (PTGFRN), expressed by cells (human, UniProt Q9P2B2 26-879).
T1 construct: whole, on cells; Also used for the endogenous protein in Brij-O10 cell lysates in the co-immunoprecipitation experiments; also called cell surface PTGFRN; prostaglandin F2 receptor negative regulator
T1 sequence (looked up): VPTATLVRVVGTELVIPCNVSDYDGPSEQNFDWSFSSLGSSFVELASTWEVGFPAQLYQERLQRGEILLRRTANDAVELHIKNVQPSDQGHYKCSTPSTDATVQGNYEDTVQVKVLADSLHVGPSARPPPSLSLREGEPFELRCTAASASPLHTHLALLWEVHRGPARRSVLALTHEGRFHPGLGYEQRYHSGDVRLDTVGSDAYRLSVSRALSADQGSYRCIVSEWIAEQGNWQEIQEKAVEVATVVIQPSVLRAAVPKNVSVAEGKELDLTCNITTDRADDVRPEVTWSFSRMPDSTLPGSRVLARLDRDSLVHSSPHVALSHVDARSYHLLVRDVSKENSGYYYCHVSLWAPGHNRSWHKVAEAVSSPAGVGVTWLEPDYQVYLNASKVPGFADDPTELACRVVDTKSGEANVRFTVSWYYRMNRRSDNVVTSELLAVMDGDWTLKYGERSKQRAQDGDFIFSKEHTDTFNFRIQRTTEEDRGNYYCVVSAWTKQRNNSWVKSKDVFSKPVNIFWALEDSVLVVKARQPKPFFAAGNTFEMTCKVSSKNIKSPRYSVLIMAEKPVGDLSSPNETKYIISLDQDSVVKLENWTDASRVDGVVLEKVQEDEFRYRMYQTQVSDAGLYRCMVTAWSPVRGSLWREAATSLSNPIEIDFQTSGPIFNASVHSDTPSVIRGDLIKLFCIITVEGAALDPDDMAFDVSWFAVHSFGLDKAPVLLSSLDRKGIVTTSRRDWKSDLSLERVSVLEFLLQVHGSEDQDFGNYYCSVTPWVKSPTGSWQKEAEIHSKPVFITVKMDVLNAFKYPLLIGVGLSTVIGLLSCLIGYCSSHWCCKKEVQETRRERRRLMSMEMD
Put plainly: flow binding on cells.

Test [2] addresses T2, PTGFRN as used in the Octet / BLI affinity measurement (UniProt Q9P2B2 26-832, limits assumed).
T2 sequence (looked up): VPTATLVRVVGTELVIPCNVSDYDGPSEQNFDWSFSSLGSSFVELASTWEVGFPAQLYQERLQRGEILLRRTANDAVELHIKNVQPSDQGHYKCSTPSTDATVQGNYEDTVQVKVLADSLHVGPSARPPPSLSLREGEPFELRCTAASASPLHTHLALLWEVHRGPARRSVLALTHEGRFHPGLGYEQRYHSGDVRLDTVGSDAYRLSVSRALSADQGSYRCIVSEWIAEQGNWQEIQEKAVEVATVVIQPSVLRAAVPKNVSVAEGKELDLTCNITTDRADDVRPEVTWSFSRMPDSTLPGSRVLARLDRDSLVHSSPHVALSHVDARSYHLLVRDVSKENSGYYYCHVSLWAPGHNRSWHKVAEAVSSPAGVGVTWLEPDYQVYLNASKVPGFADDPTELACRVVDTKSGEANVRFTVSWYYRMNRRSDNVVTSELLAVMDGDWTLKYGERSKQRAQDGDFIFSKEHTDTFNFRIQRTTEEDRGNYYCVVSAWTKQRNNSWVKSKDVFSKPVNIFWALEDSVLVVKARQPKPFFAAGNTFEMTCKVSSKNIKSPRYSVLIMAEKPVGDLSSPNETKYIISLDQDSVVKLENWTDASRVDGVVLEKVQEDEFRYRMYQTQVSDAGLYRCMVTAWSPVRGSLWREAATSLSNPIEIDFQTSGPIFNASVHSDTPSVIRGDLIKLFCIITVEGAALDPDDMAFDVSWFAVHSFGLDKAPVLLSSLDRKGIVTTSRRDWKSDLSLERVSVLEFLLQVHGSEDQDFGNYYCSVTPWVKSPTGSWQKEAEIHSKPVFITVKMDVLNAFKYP
Put plainly: Bi-Layer Interferometry (BLI), Octet Red96. A general note: BLI is a label-free optical method that tracks binding on a fibre tip over time.

Test [3] deals with T2, PTGFRN as used in the Octet / BLI …. Put plainly: Octet method.

B1: fully human anti-PTGFRN monoclonal antibody 12D8 (antibody, IgG1, V domains shown)
VH: EVQLVESGGGLVQPGRSLRLSCAASGFTFDDYAMHWVRQAPGKGLEWVSGISWSSGSLGYEDSVKGRFTISRDNAKKTLYLQMNSLRAEDTALYYCAKDMGFGDFLYYYGMDVWGQGTTVTVSS
VL: EIVLTQSPGTLSLSPGERATLSCRASQSVSSSYLTWYQQKPGQAPRLLIYGASSRATGIPDRFSGSGSGTDFTLTIRRLEPEDFAVYYCQQYGDSPPWTFGQGTKVEIK
Consider B1, for which, in test [1], the binding result is listed as “binds”.

B2: fully human anti-PTGFRN monoclonal antibody 8C7 (antibody, V domains shown)
VH: QLQLQESGPGLVKPSETLSLTCTVSGGSISSSSYYWGWIRQPPGKGLEWIGSIYYGGSTYYNPSLKSRVTISVDTSTNQFSLKLNSVTAADTAVYYCARQGLGSFDCWGQGTLVTVSS
VL: DVVMTQSPLSLPVTLGQPASISCRSSQSLVHSDGNTYLNWFQQRPGQSPRRLIYKVSNRDSGVPDRFSGSGSGTDFTLKISGVEAEDVGIYYCMQGTHWPPLTFGGGTKVEIK
notes: also called anti-PTGFRN antibody 8C7; internalizing anti-PTGFRN 8C7
For the molecule B2, binding in test [2] was put at a Kd of 0.001 nM.

B3: fully human anti-PTGFRN monoclonal antibody 6B2 (antibody, IgG1, V domains shown)
VH: QLQLQESGPGLVKPSETLSLTCTVSGGSISSSSYYWDWIRQPPGKGLEWIGTIYYGGSTYYNPSLKSRVTISVDTSKNQFSLKLNSVTAADTAVYYCARGNSYGLDYWGQGTLVTVSS
VL: DVVMTQSPLSLPVTLGQPASISCRSSQSLVHSDGNMYLNWFQQRPGQSPRRLIYKVSNRDSGVPDRFSGSGSGTDFTLKISRVEAEDVGIYYCMQSTHWPPVTFGQGTKLEIK
In the case of B3, the binding result in test [1] is given as “binds”.

B4: fully human anti-PTGFRN monoclonal antibody 4F8 (antibody, IgG4, V domains shown)
VH: EVQLVESGEGLVQPGRSLRLSCAASGFTFDDYAMHWVRQAPGKGLEWVSGISWDSGRIGYADSVKGRFTISRDNAKNSLYLQMNSLRAEDTALYYCAKDRGGGNWNYYYYGMDVWGQGTTVTVSS
VL: DIQMTQSPSSLSASVGDRVTITCRASQGISNYLAWFQQKPGKAPKSLIYAASSLQSGVPSKFSGSGSGTDFTLTISSLQPEDFATYYCQQYNSFPFTFGPGTKVDIK
In the case of B4, the Kd (commonly the equilibrium constant for the complex coming apart) in test [3] was 5.2 nM.
